This is an account of results in paper PMC4043579 (Reproduction (Cambridge, England), 2014).

The experiment concerns the target T1, mouse gremlin-2 (GREM2; PRDC) (mouse, UniProt O88273 22-168).
T1 sequence (looked up): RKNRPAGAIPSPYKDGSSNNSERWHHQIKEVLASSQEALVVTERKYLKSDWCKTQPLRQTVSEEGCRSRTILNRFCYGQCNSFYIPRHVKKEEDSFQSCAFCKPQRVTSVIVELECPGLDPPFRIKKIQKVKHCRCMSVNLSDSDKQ
As to the kind of experiment: co-IP.

B1: human anti-Müllerian hormone (AMH) (ligand, UniProt P03971 452-560, looked up)
chain: SAGATAADGPCALRELSVDLRAERSVLIPETYQANNCQGVCGWPQSDRNPRYGNHVVLLLKMQVRGAALARPPCCVPTAYAGKLLISLSEERISAHHVPNMVATECGCR
For the molecule B1, the binding result is recorded as “binds”.
